Laboratory results reported in the RNAGym collection of RNA variant scans (doi:10.7554/elife.80360).

B1: Hairpin Ribozyme (parent)
chain: GUCCUCUUUCACGUGCGCGUGAAAGAGAGAAGUGAACCAGAGAAACACACGUUGUGGUAUAUUACCUGGUA

Variants of: B1
Test: self-cleavage, relative activity (ratio to wild type); higher = more cleavage; co-transcriptional
GUCCUCUUUCACGUGCGCGUGAAAGAGAAAAGUGAACCAGAGAAACACAUGUUGUGGUAUAUUACCUGGUA gave a self-cleavage of 0.178. Work on GUCCUCUUUCACGUGCGCGUGAAAGAGUGAAGUGAACCAGAGAAACACACGUUGUGUUAUAUUACCUGGUA yielded a self-cleavage of 0.235. GUCCUCUUUCACGUGCGCGUGAAAGAGUGAAGUGAACCAGAGAAACACAAGUUGUGGUAUAUUACCUGGUA gave a self-cleavage of 0.213. In the case of GUCCUCUUUCACGUGCGCGUGAAAGAGUGAAGUGAACCAGAGAAACACAGGUUGUGGUAUAUUACCUGGUA, the self-cleavage is reported as 0.173. Variant GUCCUCUUUCACGUGCGCGUGAAAGAGAAAAGUGAACCAGAGAAACACACGUUGUGGUAUAAUACCUGGUA has a self-cleavage of 0.123. Variant GUCCUCUUUCACGUGCGCGUGAAAGAGAAAAGGGAACCAGAGAAACACACGUUGUGGUAUAUUACCUGGUA has a self-cleavage of 0.167. Work on GUCCUCUUUCACGUGCGCGUGAAAGAGUGAAGUGAACCAGAGAAACACACGUUGUGGUAUAUUAACUGGUA yielded a self-cleavage of 0.497. In the case of GUCCUCUUUCACGUGCGCGUGAAAGAGUGAAGUGAACCAGAGAAACAAACGUUGUGGUAUAUUACCUGGUA, the self-cleavage is reported as 0.131. In the case of GUCCUCUUUCACGUGCGCGUGAAAGAGUGAAGUGAACCAGAGAAACAUACGUUGUGGUAUAUUACCUGGUA, the self-cleavage is reported as 0.251. Work on GUCCUCUUUCACGUGCGCGUGAAAGAGAAAAGUGAACCAGAGAAACACACGUUGUGGUAUAUUGCCUGGUA yielded a self-cleavage of 0.0994. GUCCUCUUUCACGUGCGCGUGAAAGAGACAAGUGUACCAGAGAAACACACGUUGUGGUAUAUUACCUGGUA gave a self-cleavage of 0.0473. For GUCCUCUUUCACGUGCGCGUGAAAGAGACAAGUGCACCAGAGAAACACACGUUGUGGUAUAUUACCUGGUA, the self-cleavage was 0.104. Variant GUCCUCUUUCACGUGCGCGUGAAAGAGAAAAGUGAACCAGAGAAACACACGUUGUGGUAUAUUACAUGGUA has a self-cleavage of 0.139. GUCCUCUUUCACGUGCGCGUGAAAGAGUGAAGUAAACCAGAGAAACACACGUUGUGGUAUAUUACCUGGUA gave a self-cleavage of 0.873. Variant GUCCUCUUUCACGUGCGCGUGAAAGAGAAAAGUGAAGCAGAGAAACACACGUUGUGGUAUAUUACCUGGUA has a self-cleavage of 0.103. GUCCUCUUUCACGUGCGCGUGAAAGAGAAAAGUGAAACAGAGAAACACACGUUGUGGUAUAUUACCUGGUA gave a self-cleavage of 0.107. With GUCCUCUUUCACGUGCGCGUGAAAGAGAAAAGUGAAUCAGAGAAACACACGUUGUGGUAUAUUACCUGGUA the self-cleavage was 0.134. GUCCUCUUUCACGUGCGCGUGAAAGAGUGAAGUGAACCAGAGAAACACACGAUGUGGUAUAUUACCUGGUA showed a self-cleavage of 0.423. Variant GUCCUCUUUCACGUGCGCGUGAAAGAGUGAAGUGAACCAGAGAAACACACGCUGUGGUAUAUUACCUGGUA has a self-cleavage of 0.768. In the case of GUCCUCUUUCACGUGCGCGUGAAAGAGUCAAGUGAACCAGAGAAACACACGUUGUGGUAUAUUACCUGGUA, the self-cleavage is reported as 0.0715. GUCCUCUUUCACGUGCGCGUGAAAGAGUUAAGUGAACCAGAGAAACACACGUUGUGGUAUAUUACCUGGUA gave a self-cleavage of 0.0995. In the case of GUCCUCUUUCACGUGCGCGUGAAAGAGAAAAGUGAACCAGAGAAACACACGUUUUGGUAUAUUACCUGGUA, the self-cleavage is reported as 0.214. For GUCCUCUUUCACGUGCGCGUGAAAGAGAAAAGUGAACCAGAGAAACACACGUUCUGGUAUAUUACCUGGUA, the self-cleavage was 0.0856. With GUCCUCUUUCACGUGCGCGUGAAAGAGAAACGUGAACCAGAGAAACACACGUUGUGGUAUAUUACCUGGUA the self-cleavage was 0.129. In the case of GUCCUCUUUCACGUGCGCGUGAAAGAGACCAGUGAACCAGAGAAACACACGUUGUGGUAUAUUACCUGGUA, the self-cleavage is reported as 0.0921. GUCCUCUUUCACGUGCGCGUGAAAGAGAAAAGUGAACCAGAGAAACACUCGUUGUGGUAUAUUACCUGGUA showed a self-cleavage of 0.122. Variant GUCCUCUUUCACGUGCGCGUGAAAGAGAAAAGUGAACCAGAGAAACACACGUUGUGGUAUAUUACCUGGGA has a self-cleavage of 0.182. For GUCCUCUUUCACGUGCGCGUGAAAGAGAAAAGUGAACCAGAGAAACACACGUUGUGGUAUAUUACCUGGAA, the self-cleavage was 0.0755. Work on GUCCUCUUUCACGUGCGCGUGAAAGAGAAAAGUGAACCAGAGAAACACACGUUGUGGUAUAUUACCUGGCA yielded a self-cleavage of 0.171. In the case of GUCCUCUUUCACGUGCGCGUGAAAGAGAAAAGUGAACCACAGAAACACACGUUGUGGUAUAUUACCUGGUA, the self-cleavage is reported as 0.0971. With GUCCUCUUUCACGUGCGCGUGAAAGAGUGAAGUGAACCAGAGAAACACACGUUGUGGUAUACUACCUGGUA the self-cleavage was 0.272. In the case of GUCCUCUUUCACGUGCGCGUGAAAGAGUGAAGUGAACCAGAGAAACACACGUUGUGGUAUAGUACCUGGUA, the self-cleavage is reported as 0.0982. With GUCCUCUUUCACGUGCGCGUGAAAGAGUGAAGUGAACCAGAGAAACACACGUUGUGGUAUAAUACCUGGUA the self-cleavage was 0.0878. GUCCUCUUUCACGUGCGCGUGAAAGAGUGAAGUGAACCAGAGAAACACACGUUGUGGUAUAUGACCUGGUA showed a self-cleavage of 0.105. Work on GUCCUCUUUCACGUGCGCGUGAAAGAGAAAAGUGAACCAGAGAAACAGACGUUGUGGUAUAUUACCUGGUA yielded a self-cleavage of 0.124. GUCCUCUUUCACGUGCGCGUGAAAGAGAAAACUGAACCAGAGAAACACACGUUGUGGUAUAUUACCUGGUA gave a self-cleavage of 0.106. With GUCCUCUUUCACGUGCGCGUGAAAGAGAAAAGUGAACAAGAGAAACACACGUUGUGGUAUAUUACCUGGUA the self-cleavage was 0.108. GUCCUCUUUCACGUGCGCGUGAAAGAGACAAGUGAACCAGCGAAACACACGUUGUGGUAUAUUACCUGGUA gave a self-cleavage of 0.0573.
